From patent publication US20080181886A1, “Polypeptides That Bind Baff And/Or April” (Genentech, Inc., priority 2004, published 2008)

Experiments:
BAFF [1] = molecular target: T1, BAFF (Homo sapiens, UniProt Q9Y275); assay: Competitive surface plasmon resonance, BAFF binding to immobilized BCMA-Fc; settings: competition with immobilized BCMA-Fc
T1 construct: made in house
From the text: Surface plasmon resonance (SPR) measurements on a BIAcore 3000 instrument (Pharmacia Biosensor) were used to measure binding affinities of receptors to immobilized APRIL and BAFF by competition binding. […] In these experiments, receptors in solution competed for binding of ligand in solution at room temperature with immobilized BCMA-Fc. BCMA-Fc was coupled to flow cell 2 of a CM4 sensor chip, using the amine coupling protocol supplied by the manufacturer, at a high density (4500 resonance units) so that the initial rate of binding was linearly dependent on the concentration of free ligand. In all experiments flow cell 1 was ethanolamine-blocked and used as the reference cell. Washing with 10 mM HCl regenerated flow cells between sample injections. In order to determine the ligand concentration necessary to obtain the optimal for competition experiments, a preliminary binding study was performed for each ligand where two-fold dilutions of the ligand ranging from 400 nM to 6.25 nM were injected over the BCMA-Fc surface. The concentration of ligand that provided a slope of about 1 for the initial on-rate of the observed sensorgrams was selected as the fixed concentration to be used in the competition experiments. In all experiments where BAFE was the ligand, the buffer used was composed of 10 mM HEPES, pH 7.2, 150 mM NaCl, and 0.005% Tween-20. In all experiments where TRX-APRIL was the ligand selected, the buffer was composed of 20 mM Tris-HCl, pH 8.0, 200 mM NaCl, and 0.005% Tween-20. […] Samples were then passed over the BCMA-Fc-coupled surface. A linear fit of the initial on-rate of the observed sensorgrams was used to calculate the binding rate (V). The IC50 values were calculated using a four-parameter curve fit (y=((m1−m4)/(1+(m0/m3)̂m2))+m4) of the initial binding rates for the receptor/control (Vi/Vo) as a function of receptor concentration.

APRIL [2] = molecular target: T2, APRIL (Mus musculus, UniProt Q9D777); assay: Competitive surface plasmon resonance, APRIL binding to immobilized BCMA-Fc; parameters: species or system murine; settings: competition with immobilized BCMA-Fc
T2 construct: made in house
T2 sequence (Q9D777 105-241): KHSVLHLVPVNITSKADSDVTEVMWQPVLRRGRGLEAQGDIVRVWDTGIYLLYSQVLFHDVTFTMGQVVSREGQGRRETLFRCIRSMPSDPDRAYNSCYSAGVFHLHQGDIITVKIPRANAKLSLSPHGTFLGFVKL
From the text: Surface plasmon resonance (SPR) measurements on a BIAcore 3000 instrument (Pharmacia Biosensor) were used to measure binding affinities of receptors to immobilized APRIL and BAFF by competition binding. […] In these experiments, receptors in solution competed for binding of ligand in solution at room temperature with immobilized BCMA-Fc. BCMA-Fc was coupled to flow cell 2 of a CM4 sensor chip, using the amine coupling protocol supplied by the manufacturer, at a high density (4500 resonance units) so that the initial rate of binding was linearly dependent on the concentration of free ligand. In all experiments flow cell 1 was ethanolamine-blocked and used as the reference cell. Washing with 10 mM HCl regenerated flow cells between sample injections. In order to determine the ligand concentration necessary to obtain the optimal for competition experiments, a preliminary binding study was performed for each ligand where two-fold dilutions of the ligand ranging from 400 nM to 6.25 nM were injected over the BCMA-Fc surface. […] The IC50 values were calculated using a four-parameter curve fit (y=((m1−m4)/(1+(m0/m3)̂m2))+m4) of the initial binding rates for the receptor/control (Vi/Vo) as a function of receptor concentration.

BAFF [3] = molecular target: T1, BAFF; assay: Competitive ELISA, BAFF; assay type: binding; settings: data not shown
APRIL [4] = molecular target: T2, APRIL; assay: Competitive ELISA, APRIL; assay type: binding, murine; settings: data not shown
BAFF [5] = molecular target: T1, BAFF; assay: NNS phage library of TACI CRD2 (positions 78, 79, 84, 92), BAFF selection; assay type: binding; settings: amino acid at position F78; after 3 rounds of sorting; large F′ = favorable
Method: (§1) NNS library construction and sorting.
(§2) This new phage library was subjected to sorting against either BAFF, APRIL or the display target antibody. After 3 rounds of sorting, approximately 48 clones were picked from each selection and the DNA sequences of the phage clones were determined. […] The normalized F′ value corrects for display bias and is calculated as the percent occurrence to percent degeneracy ratio for ligand selection divided by the percent occurrence to percent degeneracy ratio for display efficiency. Percent occurrence is calculated by dividing the number of times a particular amino acid appeared at a particular position by the total number of amino acids sequenced at that position followed by multiplying by 100. Percent degeneracy is calculated by dividing the degeneracy in code for a particular amino acid divided by the total degeneracy possible at that position followed by multiplying by 100 (e.g., if only A, G and I were selected, total degeneracy possible would be 5).

APRIL [6] = molecular target: T2, APRIL; assay: NNS phage library of TACI CRD2 (positions 78, 79, 84, 92), APRIL selection; assay type: binding, murine; settings: amino acid at position F78; after 3 rounds of sorting; large F′ = favorable
Method: as §1, §2

T1 sequence (Q9Y275 82-285 limits assumed): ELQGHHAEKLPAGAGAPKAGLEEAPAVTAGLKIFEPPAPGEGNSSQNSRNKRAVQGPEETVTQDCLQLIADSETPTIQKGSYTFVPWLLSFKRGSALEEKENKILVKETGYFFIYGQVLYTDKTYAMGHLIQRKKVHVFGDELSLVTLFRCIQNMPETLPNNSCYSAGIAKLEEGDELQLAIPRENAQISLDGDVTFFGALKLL

“TACI_d1: first CRD of TACI (residues 32-67), expressed in E. coli (RSCPEEQYWDPLLGTCMSCKTICNHQSQRTCAAFCR)” was tested, and the “IC50 for BAFF, in words” value (BAFF [1]) was “in the micromolar range”, the “affinity for BAFF, comparison in words” value (BAFF [1]) was “an interaction was observed” and the “IC50 for APRIL, in words” value (APRIL [2]) was “in the micromolar range”.
“TACI_d2: second cysteine-rich domain (CRD2, residues 68-109) of TACI, with four additional residues (GSPW) at the N-terminus (GSPWSLSCRKEQGKFYDHLLRDCISCASICGQHPKQCAYFCENKLR)” was tested, and the “binding to BAFF, in words” value (BAFF [3]) was “sufficient for high-affinity binding” and the “binding to APRIL, in words” value (APRIL [4]) was “sufficient for high-affinity binding”.
In the case of “F78F: phage-displayed TACI CRD2, wild-type F retained at position 78 (NNS library) (SLSCRKEQGKFYDHLLRDCISCASICGQHPKQCAYFCENKLR; CRD2 phage-displayed; UniProt O14836 68-109, looked up, fragment)”, the “F′ BAFF F78” value (BAFF [5]) was 3 and the “F′ APRIL F78” value (APRIL [6]) was 2.
“TACI CRD1 Loop Swap: human TACI CRD1 (R32-R67) with residues NHQSQRT substituted by GQHPKQ of hTACI CRD2 (RSCPEEQYWDPLLGTCMSCKTICGQHPKQCAAFCR)” was tested, and the “affinity for BAFF, comparison in words” value (BAFF [1]) was “increased TACI CRD1 affinity” and the “affinity for APRIL, comparison in words” value (APRIL [2]) was “increased TACI CRD1 affinity”.
